Reference: US20250171556A1 (VIRTUOSO BINCO, published 2025)
Like-named read-outs stand apart in the source and are kept apart here.

Columns and labels:
CD47 on human cells [1] = target: T1, CD47 on human cells (human, UniProt Q08722 19-323); assay: flow cytometry on a mixture of HCT-15 tumor cells and a 20-fold excess of RBCs, signal on the HCT-15 cells (EpCAM+/CD47+, so both arms of the bispecific can take part), % of selective binding
T1 construct: whole, on cells; Endogenous CD47 on cells; also called CD47 on Raji cells; CD47 on HCT-15 cells
Method: (§4) Binding of antibodies on mixed tumor cells and RBCs was performed by FACS. In brief, antibodies were incubated with a mixture of HCT-15 tumor cells and RBCs (in 20-fold excess of tumor) for 1 h at 4° C. The binding of antibodies on HCT-15 cells and RBCs were identified by using different FACS markers and detected by flow cytometry.

recombinant human CD47 [2] = target: T2, recombinant human CD47 (human, UniProt Q08722 19-139, limits assumed); assay: ELISA, plate coated with recombinant human CD47, detection with peroxidase anti-human IgG (Fab specific), OD450
T2 construct: Recombinant protein for ELISA coating; also called human CD47 recombinant protein
Method: (§1) A 96-well plate was coated overnight at 4° C. with 1 μg/ml recombinant human CD47 or human EpCAM. After washing 3 times, the plate was blocked with 300 μl 1% BSA in PBST at 37° C. for 1 hour. Serially diluted antibodies were added and incubated at 37° C. for 1 hour. The plate was then washed 4 times with PBST and incubated with 1:5000 diluted peroxidase labeled goat anti-human IgG (Fab specific) secondary antibody (Sigma, Cat #A0293) for 1 hour at 37° C. The plate was washed again 4 times with PBST, incubated with 3,3′,5,5′-tetramethylbenzidine (TMB) substrate for 15 min at room temperature, terminated with 1N HCl, and then read at 450 nm.

CD47 on human cells [3] = target: T1, CD47 on human cells; assay: flow cytometry on a mixture of HCT-15 cells and RBCs; EC50 on HCT-15 cells against EC50 on RBCs
Method: as §4

CD47 on human cells [4] = target: T1, CD47 on human cells; assay: flow cytometry, blocking of SIRPα-mIgG2a fusion protein (1 µg/mL) binding to CD47 on HCT-15 cells (EpCAM+++/CD47+), inhibition (%)
Method: (§2) Tumor cells were harvested, centrifuged, and then resuspended in FACS buffer (PBS plus 2% FBS) at a concentration of 2×10⁶ cells/mL. 100 μL of the cell suspension was dispensed into each well of a 96-well plate. The plate was centrifuged for 5 min and 300×g, and the supernatants were discarded. […] Then, the plates were washed twice with FACS buffer and incubated for 1 hour at 4° C. in the dark with 100 μL of Alexa Fluor 488 donkey anti-Mouse IgG (H+L) secondary antibody (Invitrogen, Cat #A21202, 1:1000). After washing twice with FACS buffer, the plates were resuspended with 300 μL FACS buffer and analyzed by flow cytometry.

CD47 on human cells [5] = target: T1, CD47 on human cells; assay: flow cytometry competition with SIRPα-mIgG2a (1 µg/mL) on EpCAM-high HCT-15 cells; EpCAM high HCT-15 cells; SIRPα-mIgG2a 1 µg/mL
Method: as §2

CD47 on human cells [6] = target: T1, CD47 on human cells; assay: flow cytometry competition with SIRPα-mIgG2a; IC50 on HCT-15 cells against IC50 on Raji cells
Method: as §2

CD47 on human cells [7] = target: T1, CD47 on human cells; assay: flow cytometry competition with SIRPα-mIgG2a (0.2 µg/mL) on EpCAM-negative Raji cells; EpCAM negative Raji cells; SIRPα-mIgG2a 0.2 µg/mL
Method: as §2

recombinant human EpCAM [8] = target: T3, recombinant human EpCAM (human, UniProt P16422 24-265); assay: ELISA, plate coated with recombinant human EpCAM, detection with peroxidase anti-human IgG (Fab specific), OD450
T3 construct: Recombinant protein for ELISA coating; also called human EpCAM recombinant protein
T3 sequence (looked up): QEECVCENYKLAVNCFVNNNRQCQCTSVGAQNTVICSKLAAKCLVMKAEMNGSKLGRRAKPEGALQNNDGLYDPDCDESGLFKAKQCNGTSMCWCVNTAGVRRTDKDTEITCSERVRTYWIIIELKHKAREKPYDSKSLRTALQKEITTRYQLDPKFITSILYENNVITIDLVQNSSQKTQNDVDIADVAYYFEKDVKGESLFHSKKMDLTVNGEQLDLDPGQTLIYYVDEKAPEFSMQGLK
Method: as §1

recombinant human EpCAM [9] = target: T3, recombinant human EpCAM; assay: as above; remark: listed apart in the source
Method: as §1
(§3) ELISA assay was performed as described in EXAMPLE 3.

recombinant human CD47 [10] = target: T2, recombinant human CD47; assay: ELISA, plate coated with recombinant human CD47, detection with peroxidase anti-human IgG (Fab specific), OD450; remark: listed apart in the source
Method: as §1, §3

recombinant human CD47 [11] = target: T2, recombinant human CD47; assay: as above; remark: listed apart in the source
Method: as §1, with “μg/mL” for “μg/ml”, “EGFR.” for “EpCAM.”, “μL” for “μl”

CD47 on human cells [12] = target: T1, CD47 on human cells; assay: flow cytometry, blocking of SIRPα-mIgG2a fusion protein (0.2 µg/mL) binding to CD47 on Raji cells (EpCAM-/CD47+), inhibition (%)
Method: as §2

B1: CD47×EpCAM_v5 (bispecific antibody, human IgG1, lambda)
heavy: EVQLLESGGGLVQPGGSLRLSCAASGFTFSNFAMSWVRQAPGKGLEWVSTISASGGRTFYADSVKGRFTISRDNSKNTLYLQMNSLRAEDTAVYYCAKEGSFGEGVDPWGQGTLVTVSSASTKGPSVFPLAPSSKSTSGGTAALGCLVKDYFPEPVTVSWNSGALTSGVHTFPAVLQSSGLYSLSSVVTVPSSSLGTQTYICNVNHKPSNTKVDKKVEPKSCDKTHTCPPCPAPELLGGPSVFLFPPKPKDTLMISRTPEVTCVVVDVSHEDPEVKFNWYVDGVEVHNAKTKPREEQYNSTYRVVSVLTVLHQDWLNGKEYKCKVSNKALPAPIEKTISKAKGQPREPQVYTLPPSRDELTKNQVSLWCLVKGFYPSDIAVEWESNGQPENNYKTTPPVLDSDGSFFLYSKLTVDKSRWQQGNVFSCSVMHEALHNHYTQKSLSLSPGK
light: SYELTQPPSVSVSPGQTARITCSGDALPKKYAYWYQQKSGQAPVLVIYEDNKRPSGIPERFSGSSSGTMATLTISGAQVEDEADYYCYSTDISGNHWVFGGGTKLTVLGQPKAAPSVTLFPPSSEELQANKATLVCLISDFYPGAVTVAWKADSSPVKAGVETTTPSKQSNNKYAASSYLSLTPEQWKSHRSYSCQVTHEGSTVEKTVAPTECS
scFv: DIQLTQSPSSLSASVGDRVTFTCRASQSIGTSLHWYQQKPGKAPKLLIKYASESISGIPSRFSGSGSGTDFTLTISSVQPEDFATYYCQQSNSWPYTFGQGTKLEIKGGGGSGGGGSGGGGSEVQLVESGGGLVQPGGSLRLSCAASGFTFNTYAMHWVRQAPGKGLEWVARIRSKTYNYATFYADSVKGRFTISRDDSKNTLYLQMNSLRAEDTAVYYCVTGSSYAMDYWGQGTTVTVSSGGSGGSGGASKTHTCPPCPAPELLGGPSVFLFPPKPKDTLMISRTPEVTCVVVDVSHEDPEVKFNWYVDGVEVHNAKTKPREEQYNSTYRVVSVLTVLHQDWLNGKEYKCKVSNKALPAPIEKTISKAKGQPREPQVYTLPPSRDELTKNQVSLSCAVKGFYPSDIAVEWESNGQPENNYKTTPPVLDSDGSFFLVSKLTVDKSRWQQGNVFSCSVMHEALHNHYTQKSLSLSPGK
notes: Three-chain knob-into-hole bispecific: anti-CD47 Fab arm (VIR47.V8) and anti-EpCAM scFv arm (Mab002-11), human IgG1 backbone; also called anti-CD47×EpCAM bispecific antibody
EC50 (read off the curve) (CD47 on human cells [1]): ~0.09 nM | EC50 (read off the curve) (recombinant human CD47 [2]): ~1 nM | fold difference of binding EC50 (tumor cells against RBCs) (CD47 on human cells [3]): > 200 fold | IC50 (read off the curve) (CD47 on human cells [4]): ~0.3 nM | IC50 (CD47 on human cells [5]): < 1 nM | fold difference of IC50 (HCT-15 cells against Raji cells) (CD47 on human cells [6]): ~500 fold | IC50 (CD47 on human cells [7]): > 100 nM | EC50 (read off the curve) (recombinant human EpCAM [8]): ~0.8 nM

B2: CD47×EpCAM_v11 (bispecific antibody, human IgG1, lambda)
heavy: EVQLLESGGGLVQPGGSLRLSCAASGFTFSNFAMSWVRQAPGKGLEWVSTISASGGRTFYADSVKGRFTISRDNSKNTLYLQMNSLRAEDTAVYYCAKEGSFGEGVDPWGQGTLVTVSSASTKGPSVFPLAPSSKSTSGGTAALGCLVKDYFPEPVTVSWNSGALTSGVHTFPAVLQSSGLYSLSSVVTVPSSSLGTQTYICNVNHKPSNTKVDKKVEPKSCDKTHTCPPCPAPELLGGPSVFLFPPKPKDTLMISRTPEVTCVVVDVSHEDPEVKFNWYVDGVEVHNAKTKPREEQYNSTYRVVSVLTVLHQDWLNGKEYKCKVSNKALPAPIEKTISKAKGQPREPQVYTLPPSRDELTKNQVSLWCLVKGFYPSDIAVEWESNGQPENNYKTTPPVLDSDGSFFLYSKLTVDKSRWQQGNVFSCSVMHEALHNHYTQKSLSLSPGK
light: SYELTQPPSVSVSPGQTARITCSGDALPKKYAYWYQQKSGQAPVLVIYEDNKRPSGIPERFSGSSSGTMATLTISGAQVEDEADYYCYSTDISGNHWVFGGGTKLTVLGQPKAAPSVTLFPPSSEELQANKATLVCLISDFYPGAVTVAWKADSSPVKAGVETTTPSKQSNNKYAASSYLSLTPEQWKSHRSYSCQVTHEGSTVEKTVAPTECS
scFv: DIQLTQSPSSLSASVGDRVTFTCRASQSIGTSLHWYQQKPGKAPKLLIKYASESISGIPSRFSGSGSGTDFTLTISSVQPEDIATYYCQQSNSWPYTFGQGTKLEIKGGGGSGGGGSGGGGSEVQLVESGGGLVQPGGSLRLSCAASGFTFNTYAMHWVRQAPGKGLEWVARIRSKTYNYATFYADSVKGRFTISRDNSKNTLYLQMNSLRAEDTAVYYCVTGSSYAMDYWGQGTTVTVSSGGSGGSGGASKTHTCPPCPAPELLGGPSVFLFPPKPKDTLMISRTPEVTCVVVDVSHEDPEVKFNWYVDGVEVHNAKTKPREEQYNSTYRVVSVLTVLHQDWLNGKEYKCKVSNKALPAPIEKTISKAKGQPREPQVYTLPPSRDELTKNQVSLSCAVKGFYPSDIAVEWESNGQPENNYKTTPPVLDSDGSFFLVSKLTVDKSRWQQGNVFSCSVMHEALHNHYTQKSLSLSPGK
notes: Three-chain knob-into-hole bispecific: anti-CD47 Fab arm and anti-EpCAM scFv arm (Mab002-8)
EC50 (read off the curve) (recombinant human EpCAM [9]): ~0.1 nM | EC50 (read off the curve) (recombinant human CD47 [10]): ~0.4 nM

B3: VIR47.V8 (antibody, human IgG1, lambda, V domains shown)
VH: EVQLLESGGGLVQPGGSLRLSCAASGFTFSNFAMSWVRQAPGKGLEWVSTISASGGRTFYADSVKGRFTISRDNSKNTLYLQMNSLRAEDTAVYYCAKEGSFGEGVDPWGQGTLVTVSS
VL: SYELTQPPSVSVSPGQTARITCSGDALPKKYAYWYQQKSGQAPVLVIYEDNKRPSGIPERFSGSSSGTMATLTISGAQVEDEADYYCYSTDISGNHWVFGGGTKLTVLG
notes: Bivalent monospecific parental anti-CD47 antibody; also called parental CD47 antibody VIR47.V8; anti-CD47 bivalent antibody (VIR47.V8)
EC50 (read off the curve) (recombinant human CD47 [11]): ~0.05 nM | IC50 (read off the curve) (CD47 on human cells [12]): ~8 nM

B4: CD47×EpCAM_v10 (bispecific antibody, human IgG1, lambda)
heavy: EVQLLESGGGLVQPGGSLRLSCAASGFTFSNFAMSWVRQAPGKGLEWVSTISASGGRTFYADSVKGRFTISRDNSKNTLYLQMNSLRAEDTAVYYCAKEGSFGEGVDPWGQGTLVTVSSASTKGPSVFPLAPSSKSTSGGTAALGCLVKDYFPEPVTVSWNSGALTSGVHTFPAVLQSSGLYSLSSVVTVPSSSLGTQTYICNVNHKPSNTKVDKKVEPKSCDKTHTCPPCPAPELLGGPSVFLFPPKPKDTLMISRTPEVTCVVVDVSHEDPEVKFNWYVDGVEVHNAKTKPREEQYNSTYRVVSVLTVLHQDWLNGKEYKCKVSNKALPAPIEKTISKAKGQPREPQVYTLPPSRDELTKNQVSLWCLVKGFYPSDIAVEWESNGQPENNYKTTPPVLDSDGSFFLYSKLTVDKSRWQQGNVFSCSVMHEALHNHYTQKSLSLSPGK
light: SYELTQPPSVSVSPGQTARITCSGDALPKKYAYWYQQKSGQAPVLVIYEDNKRPSGIPERFSGSSSGTMATLTISGAQVEDEADYYCYSTDISGNHWVFGGGTKLTVLGQPKAAPSVTLFPPSSEELQANKATLVCLISDFYPGAVTVAWKADSSPVKAGVETTTPSKQSNNKYAASSYLSLTPEQWKSHRSYSCQVTHEGSTVEKTVAPTECS
scFv: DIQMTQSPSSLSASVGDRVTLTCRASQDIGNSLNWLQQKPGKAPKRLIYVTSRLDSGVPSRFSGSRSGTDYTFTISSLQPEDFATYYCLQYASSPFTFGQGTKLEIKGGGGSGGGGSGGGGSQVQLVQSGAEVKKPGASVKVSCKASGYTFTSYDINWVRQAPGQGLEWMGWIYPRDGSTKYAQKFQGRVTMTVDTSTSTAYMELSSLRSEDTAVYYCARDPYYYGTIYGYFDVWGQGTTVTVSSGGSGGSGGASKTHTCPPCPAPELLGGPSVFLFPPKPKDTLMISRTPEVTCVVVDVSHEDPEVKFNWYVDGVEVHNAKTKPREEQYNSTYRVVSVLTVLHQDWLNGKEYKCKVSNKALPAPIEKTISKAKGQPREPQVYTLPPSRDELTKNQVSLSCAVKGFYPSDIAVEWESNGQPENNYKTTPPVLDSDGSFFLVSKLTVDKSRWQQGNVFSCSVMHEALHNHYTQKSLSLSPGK
notes: Three-chain knob-into-hole bispecific: anti-CD47 Fab arm and anti-EpCAM scFv arm (Mab001-12)
EC50 (read off the curve) (recombinant human EpCAM [9]): ~9 nM | EC50 (read off the curve) (recombinant human CD47 [10]): ~1 nM

B5: CD47×EpCAM_v9 (bispecific antibody, human IgG1, kappa)
heavy: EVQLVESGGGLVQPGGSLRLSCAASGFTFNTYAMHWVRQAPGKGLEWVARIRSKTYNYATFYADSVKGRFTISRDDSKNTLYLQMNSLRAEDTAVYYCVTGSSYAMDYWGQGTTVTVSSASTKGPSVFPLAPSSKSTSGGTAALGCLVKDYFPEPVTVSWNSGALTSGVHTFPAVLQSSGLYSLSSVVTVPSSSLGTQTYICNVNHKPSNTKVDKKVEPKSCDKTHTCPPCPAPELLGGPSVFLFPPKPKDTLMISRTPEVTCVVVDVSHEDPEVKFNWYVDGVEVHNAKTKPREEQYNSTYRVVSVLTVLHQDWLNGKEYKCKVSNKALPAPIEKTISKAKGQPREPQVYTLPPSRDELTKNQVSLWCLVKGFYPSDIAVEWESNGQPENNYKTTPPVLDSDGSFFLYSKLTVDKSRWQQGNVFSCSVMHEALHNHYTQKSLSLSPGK
light: DIQLTQSPSSLSASVGDRVTFTCRASQSIGTSLHWYQQKPGKAPKLLIKYASESISGIPSRFSGSGSGTDFTLTISSVQPEDFATYYCQQSNSWPYTFGQGTKLEIKRTVAAPSVFIFPPSDEQLKSGTASVVCLLNNFYPREAKVQWKVDNALQSGNSQESVTEQDSKDSTYSLSSTLTLSKADYEKHKVYACEVTHQGLSSPVTKSFNRGEC
scFv: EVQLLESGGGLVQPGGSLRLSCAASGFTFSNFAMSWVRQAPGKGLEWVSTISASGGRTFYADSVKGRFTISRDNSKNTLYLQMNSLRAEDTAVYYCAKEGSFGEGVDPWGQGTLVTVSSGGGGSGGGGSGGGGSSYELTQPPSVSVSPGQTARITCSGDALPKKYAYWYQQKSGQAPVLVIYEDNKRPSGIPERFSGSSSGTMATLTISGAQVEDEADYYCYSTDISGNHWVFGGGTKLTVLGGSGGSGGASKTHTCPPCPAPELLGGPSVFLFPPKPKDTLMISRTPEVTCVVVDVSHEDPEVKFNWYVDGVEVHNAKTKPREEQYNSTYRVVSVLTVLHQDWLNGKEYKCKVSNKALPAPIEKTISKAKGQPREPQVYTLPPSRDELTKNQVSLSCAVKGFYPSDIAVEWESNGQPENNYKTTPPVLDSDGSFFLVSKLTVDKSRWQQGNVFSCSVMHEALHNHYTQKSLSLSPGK
notes: Three-chain knob-into-hole bispecific: anti-EpCAM Fab arm and anti-CD47 scFv arm
EC50 (read off the curve) (recombinant human EpCAM [9]): ~0.1 nM | EC50 (read off the curve) (recombinant human CD47 [10]): ~7 nM
